Assay results: patent US20260167718A1 (Merck Sharp & Dohme, published 2026)
Positions count from the first letter of the chain named. Names may count otherwise.

T1: rhesus ILT3-His tagged recombinant protein (rhesus monkey (Macaca mulatta))
T1 construct: also called ILT3_MM; not shown: His tag
T1 chain: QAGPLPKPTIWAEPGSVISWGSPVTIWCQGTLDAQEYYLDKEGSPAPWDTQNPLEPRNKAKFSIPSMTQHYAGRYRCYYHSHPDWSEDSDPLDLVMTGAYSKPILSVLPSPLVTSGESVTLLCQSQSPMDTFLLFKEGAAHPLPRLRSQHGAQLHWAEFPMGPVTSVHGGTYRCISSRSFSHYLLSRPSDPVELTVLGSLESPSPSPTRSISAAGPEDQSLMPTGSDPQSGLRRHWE

B1: Chimeric anti-ILT3 52B8 mouse VH M64L/human IgG4 (S228P):mouse VL/human Kappa (antibody, V domains shown)
VH: EVQLVESGGDLVKPGGSLKLSCAASGFTFSNYGMSWVRQTPDRRLEWVATISGGGDYTNYPDSLRGRFTISRDNAKNTLYLQMSSLKSEDTAMYYCGRRLWFRSLYYAMDYWGQGTSVTVSS
VL: NIVLTQSPASLAVSLGQRATISCRASEKVDSFGNSFMHWYQQKPGQPPKLLIYLTSNLDSGVPARFSGSGSRTDFALTIDPVEADDAATYYCQQNNEDPYTFGGGTKLEIKR
notes: also called mAb 75
B2: Chimeric anti-ILT3 52B8 mouse VH M64V/human IgG4 (S228P):mouse VL/human Kappa (antibody, V domains shown)
VH: B1 VH with L64V
VL: B1 VL
notes: also called mAb 74
B3: Humanized anti-ILT3 mAb (52B8 VH1 M64L/VL2) IgG4 S228P/Kappa (antibody, V domains shown)
VH: EVQLVESGGGLVQPGGSLRLSCAASGFTFSNYGMSWVRQAPGKGLEWVATISGGGDYTNYPDSLRGRFTISRDNAKNSLYLQMNSLRAEDTAVYYCGRRLWFRSLYYAMDYWGQGTLVTVSS
VL: DIVLTQSPDSLAVSLGERATINCRASEKVDSFGNSFMHWYQQKPGQPPKLLIYLTSNLDSGVPDRFSGSGSGTDFTLTISSLQAEDVAVYYCQQNNEDPYTFGQGTKLEIKR
notes: also called mAb 18
B4: Humanized anti-ILT3 mAb (52B8 VH2 M64L/VL2) IgG4 S228P/Kappa (antibody, V domains shown)
VH: B3 VH with R87K
VL: B3 VL
notes: also called mAb 22
B5: Humanized anti-ILT3 mAb (52B8 VH2/VL2) IgG4 S228P/Kappa (antibody, V domains shown)
VH: B3 VH with L64M, R87K
VL: B3 VL
notes: also called mAb 6
B6: Humanized anti-ILT3 mAb (52B8 VH1/VL2) IgG4 S228P/Kappa (antibody, V domains shown)
VH: B3 VH with L64M
VL: B3 VL
notes: also called mAb 2
B7: Humanized anti-ILT3 mAb (52B8 VH2 M64V/VL2) IgG4 S228P/Kappa (antibody, V domains shown)
VH: B3 VH with L64V, R87K
VL: B3 VL
notes: also called mAb 14
B8: Humanized anti-ILT3 mAb (52B8 VH2 M64L/VL1) IgG4 S228P/Kappa (antibody, V domains shown)
VH: B3 VH with R87K
VL: B3 VL with G72R
notes: also called mAb 21
B9: Humanized anti-ILT3 mAb (52B8 VH1 M64V/VL5 N34Q) IgG4 S228P/Kappa (antibody, V domains shown)
VH: B3 VH with L64V
VL: DIQLTQSPSSLSASVGDRVTITCRASEKVDSFGQSFMHWYQQKPGKAPKLLIYLTSNLDSGVPSRFSGSGSGTDFTLTISSLQPEDFATYYCQQNNEDPYTFGQGTKLEIKR
notes: also called mAb 46; humanized 52B8
B10: Humanized anti-ILT3 mAb (52B8 VH1/VL3) IgG4 S228P/Kappa (antibody, V domains shown)
VH: B3 VH with L64M
VL: EIVLTQSPATLSLSPGERATLSCRASEKVDSFGNSFMHWYQQKPGQAPRLLIYLTSNLDSGVPARFSGSGSRTDFTLTISSLEPEDFAVYYCQQNNEDPYTFGQGTKLEIKR
notes: also called mAb 3
B11: Humanized anti-ILT3 mAb (52B8 VH2/VL3) IgG4 S228P/Kappa (antibody, V domains shown)
VH: B3 VH with L64M, R87K
VL: B10 VL
notes: also called mAb 7
B12: Humanized anti-ILT3 mAb (52B8 VH1 M64V/VL4) IgG4 S228P/Kappa (antibody, V domains shown)
VH: B3 VH with L64V
VL: B10 VL with V62I, R72G
notes: also called mAb 12
B13: Humanized anti-ILT3 mAb (52B8 VH1 M64V/VL3) IgG4 S228P/Kappa (antibody, V domains shown)
VH: B3 VH with L64V
VL: B10 VL
notes: also called mAb 11
B14: Humanized anti-ILT3 mAb (52B8 VH1 M64V W101Y/VL5 S35N) IgG4 S228P/Kappa (antibody, V domains shown)
VH: B3 VH with L64V, W101Y
VL: B9 VL with Q34N, S35N
notes: also called mAb 56
B15: Humanized anti-ILT3 mAb (52B8 VH2 M64V/VL3) IgG4 S228P/Kappa (antibody, V domains shown)
VH: B3 VH with L64V, R87K
VL: B10 VL
notes: also called mAb 15
B16: Humanized anti-ILT3 mAb (52B8 VH1 M64V W101Y/VL5 N34Q) IgG4 S228P/Kappa (antibody, V domains shown)
VH: B3 VH with L64V, W101Y
VL: B9 VL
notes: also called mAb 57
B17: Humanized anti-ILT3 mAb (52B8 VH1 M64V W101Y/VL5 S35A) IgG4 S228P/Kappa (antibody, V domains shown)
VH: B3 VH with L64V, W101Y
VL: B9 VL with Q34N, S35A
notes: also called mAb 55
B18: Humanized anti-ILT3 mAb (52B8 VH2 M64L/VL4) IgG4 S228P/Kappa (antibody, V domains shown)
VH: B3 VH with R87K
VL: B10 VL with V62I, R72G
notes: also called mAb 24
B19: Humanized anti-ILT3 mAb (52B8 VH1/VL4) IgG4 S228P/Kappa (antibody, V domains shown)
VH: B3 VH with L64M
VL: B10 VL with V62I, R72G
notes: also called mAb 4
B20: Humanized anti-ILT3 mAb (52B8 VH1 M64V/VL5 S35N) IgG4 S228P/Kappa (antibody, V domains shown)
VH: B3 VH with L64V
VL: B9 VL with Q34N, S35N
notes: also called mAb 45
B21: Humanized anti-ILT3 mAb (52B8 VH2 M64V/VL4) IgG4 S228P/Kappa (antibody, V domains shown)
VH: B3 VH with L64V, R87K
VL: B10 VL with V62I, R72G
notes: also called mAb 16
B22: Humanized anti-ILT3 mAb (52B8 VH1 M64V/VL5 S35A) IgG4 S228P/Kappa (antibody, V domains shown)
VH: B3 VH with L64V
VL: B9 VL with Q34N, S35A
notes: also called mAb 44
B23: Humanized anti-ILT3 mAb (52B8 VH1 M64V W101Y/VL5 N34D) IgG4 S228P/Kappa (antibody, V domains shown)
VH: B3 VH with L64V, W101Y
VL: B9 VL with Q34D
notes: also called mAb 58
B24: Humanized anti-ILT3 mAb (52B8 VH2/VL4) IgG4 S228P/Kappa (antibody, V domains shown)
VH: B3 VH with L64M, R87K
VL: B10 VL with V62I, R72G
notes: also called mAb 8
B25: Humanized anti-ILT3 mAb (52B8 VH2 M64L/VL3) IgG4 S228P/Kappa (antibody, V domains shown)
VH: B3 VH with R87K
VL: B10 VL
notes: also called mAb 23
B26: Humanized anti-ILT3 mAb (52B8 VH1 M64V/VL5 N34D) IgG4 S228P/Kappa (antibody, V domains shown)
VH: B3 VH with L64V
VL: B9 VL with Q34D
notes: also called mAb 47
B27: Humanized anti-ILT3 mAb (52B8 VH1 M64L/VL4) IgG4 S228P/Kappa (antibody, V domains shown)
VH: B3 VH
VL: B10 VL with V62I, R72G
notes: also called mAb 20
B28: Humanized anti-ILT3 mAb (52B8 VH1 M64L/VL3) IgG4 S228P/Kappa (antibody, V domains shown)
VH: B3 VH
VL: B10 VL
notes: also called mAb 19

Each binder was assayed against T2, human ILT3 expressed on cells (human, UniProt Q8NHJ6 22-448) (assay: cELISA, CHO human ILT3 cells).
T2 construct: whole, on cells; also called huILT3; LILRB4
B1 was tested, and the EC50 was 0.086 µg/mL. In the case of B2, the EC50 is reported as 0.075 µg/mL. B3 was tested, and the EC50 was 0.079 µg/mL. In the case of B4, the EC50 is reported as 0.057 µg/mL. Work on B5 yielded an EC50 of 0.1 µg/mL. Work on B6 yielded an EC50 of 0.7 µg/mL. B7 was tested, and the EC50 was 0.077 µg/mL. B8 was tested, and the EC50 was 0.079 µg/mL. Binder B9 has an EC50 of 0.088 µg/mL.

These binders were tested against T3, Human ILT3 (LILRB4) extracellular domain with C-terminal His Tag (human, UniProt Q8NHJ6 22-259) (assay: SPR (Biacore), human ILT3-His).
T3 construct: the claims count residues 1-238 as the extracellular domain; also called human ILT3-His; ILT3_H
Description: (§1) The binding kinetics and affinities of anti-human ILT3 clones for human or rhesus ILT3-His tagged recombinant protein were measured by surface plasmon resonance using a Biacore™ T200 system (GE Healthcare, Piscataway, NJ). HBS-EP+ buffer (BR-1006-69) was used as the running buffer. Anti-human Fc antibody (Human Fc Capture Kit, BR100839, GE Healthcare) was immobilized via amine coupling chemistry in all four flow cells on a Series S CM5 sensor chip (BR100530 or 29149603, GE Healthcare) following manufacturer instructions. Flow cell 1 was used as reference for background subtraction and was not used for capture. […] Following each injection cycle, all four flow cells were regenerated using 30 second injection of 3M MgCl₂ solution at a flow rate of 10 μL/minute. Reference subtracted sensorgrams were fit to a 1:1 Langmuir Binding Model in the Biacore™ T200 Evaluation Software (Version 2.0) to determine the association (ka) and dissociation (kd) rate constants and the equilibrium dissociation constant KD (=kd/ka).
Binder B1 has a Kd of 0.41 nM. Binder B2 has a Kd of 0.44 nM. Binder B3 has a Kd of 1 nM. For B4, the Kd was 0.97 nM. B10 gave a Kd of 1.1 nM. Binder B11 has a Kd of 0.96 nM. Binder B12 has a Kd of 1.5 nM. B13 was tested, and the Kd was 1.1 nM. B14: no binding (tested: ILT3-His injected up to 20 nM). B15 was tested, and the Kd was 1 nM. B16: no binding (tested: ILT3-His injected up to 20 nM). B17: no binding (tested: ILT3-His injected up to 20 nM). Work on B5 yielded a Kd of 1.1 nM. B6 gave a Kd of 1.1 nM. For B18, the Kd was 1.2 nM. Work on B19 yielded a Kd of 1.4 nM. Binder B20 has a Kd of 4.7 nM. Binder B21 has a Kd of 1.4 nM. B7 was tested, and the Kd was 1 nM. Work on B22 yielded a Kd of 2.6 nM. In the case of B8, the Kd is reported as 0.88 nM. B23: no binding (tested: ILT3-His injected up to 20 nM). B24 was tested, and the Kd was 1.3 nM. In the case of B25, the Kd is reported as 0.96 nM. B26 gave a Kd of 3.8 nM. With B9 the Kd was 0.77 nM. For B27, the Kd was 1.3 nM. For B28, the Kd was 0.99 nM.

These binders were tested against T4, Rhesus monkey ILT3 expressed on CHO-K1 cells (rhesus monkey (Macaca mulatta)) (assay: cELISA, CHO rhesus ILT3 cells).
T4 construct: whole, on cells; also called rhILT3; CHO-rhesus ILT3
B1 gave an EC50 of 0.137 µg/mL. Binder B2 has an EC50 of 0.096 µg/mL. Binder B3 has an EC50 of 0.137 µg/mL. In the case of B4, the EC50 is reported as 0.081 µg/mL. With B5 the EC50 was 0.118 µg/mL. For B6, the EC50 was 0.109 µg/mL. B7 was tested, and the EC50 was 0.126 µg/mL. With B8 the EC50 was 0.112 µg/mL. Binder B9 has an EC50 of 0.12 µg/mL.

Molecular target: T1, rhesus ILT3-His tagged recombinant …
Assay: SPR (Biacore), rhesus ILT3-His
Description: as §1
Binder B1 has a Kd of 9.3 nM. B2 gave a Kd of 9.2 nM. B3 gave a Kd of 22 nM. Work on B4 yielded a Kd of 21 nM. With B10 the Kd was 26 nM. For B11, the Kd was 26 nM. In the case of B12, the Kd is reported as 29 nM. In the case of B13, the Kd is reported as 27 nM. B14: no binding (tested: ILT3-His injected up to 20 nM). Work on B15 yielded a Kd of 26 nM. B16: no binding (tested: ILT3-His injected up to 20 nM). B17: no binding (tested: ILT3-His injected up to 20 nM). In the case of B5, the Kd is reported as 21 nM. With B6 the Kd was 20 nM. B18 gave a Kd of 27 nM. Work on B19 yielded a Kd of 29 nM. B20: no binding (tested: ILT3-His injected up to 20 nM). In the case of B21, the Kd is reported as 29 nM. For B7, the Kd was 22 nM. With B22 the Kd was 34 nM. For B8, the Kd was 27 nM. B23: no binding (tested: ILT3-His injected up to 20 nM). With B24 the Kd was 27 nM. Work on B25 yielded a Kd of 24 nM. B26 gave a Kd of 115 nM. B9 was tested, and the Kd was 15 nM. Work on B27 yielded a Kd of 29 nM. Work on B28 yielded a Kd of 26 nM.
